This is an account of results in patent US8026218.

The target in experiment [1] is guinea pig NK1 receptor (guinea pig) (UniProt P30547). Kind of experiment: cell-based or functional assay.
In experiment [2] the target is δ opioid receptor of the mouse isolated vas deferens (mouse) (UniProt P32300). Briefly: cell-based or functional assay.
Experiment [3] addresses µ opioid receptor of the guinea pig isolated ileum (guinea pig) (UniProt P97266). Briefly: cell-based or functional assay.
The target of experiment [4] is rat µ opioid receptor (rat) (UniProt P33535). Kind of experiment: cell-based or functional assay.
Sequence of rat µ opioid receptor (rat) (P33535 whole entry): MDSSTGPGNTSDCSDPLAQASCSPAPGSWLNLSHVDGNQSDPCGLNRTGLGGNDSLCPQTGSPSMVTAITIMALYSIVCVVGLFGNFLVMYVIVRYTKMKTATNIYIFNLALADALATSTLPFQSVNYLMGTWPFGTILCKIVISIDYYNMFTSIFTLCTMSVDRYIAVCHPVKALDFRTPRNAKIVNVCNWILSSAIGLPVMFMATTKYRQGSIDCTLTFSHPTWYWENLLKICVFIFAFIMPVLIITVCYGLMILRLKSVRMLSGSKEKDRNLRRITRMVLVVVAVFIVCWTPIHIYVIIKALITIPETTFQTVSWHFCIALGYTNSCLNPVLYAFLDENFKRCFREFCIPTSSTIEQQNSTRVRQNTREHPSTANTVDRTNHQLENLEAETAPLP
For experiment [5] the target is unchanged. Kind of experiment: competition vs [3H]DAMGO, rMOR cell membranes.
Experiment [6] deals with human δ opioid receptor (human) (UniProt P41143). Briefly: competition vs [3H]DPDPE, hDOR cell membranes.
Sequence of human δ opioid receptor (human) (P41143 whole entry, stated change not applied): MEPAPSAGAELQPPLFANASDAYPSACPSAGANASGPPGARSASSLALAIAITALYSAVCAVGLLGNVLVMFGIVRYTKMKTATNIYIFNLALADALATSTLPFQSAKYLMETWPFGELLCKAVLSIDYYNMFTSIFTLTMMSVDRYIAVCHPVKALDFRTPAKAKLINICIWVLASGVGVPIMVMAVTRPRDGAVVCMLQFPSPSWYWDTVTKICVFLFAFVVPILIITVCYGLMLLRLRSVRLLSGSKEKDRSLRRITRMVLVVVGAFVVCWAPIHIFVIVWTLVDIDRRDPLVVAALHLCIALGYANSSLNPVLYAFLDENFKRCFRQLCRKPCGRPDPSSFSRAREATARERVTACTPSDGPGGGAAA
Experiment [7] concerns the target human NK1 receptor (human) (UniProt P25103). Kind of experiment: competition vs [3H]Substance P, hNK1 CHO cell membranes.
Experiment [8] deals with rat NK1 receptor (rat) (UniProt P14600). Kind of experiment: competition vs [3H]Substance P, rNK1 CHO cell membranes.
Sequence of rat NK1 receptor (rat) (P14600 whole entry): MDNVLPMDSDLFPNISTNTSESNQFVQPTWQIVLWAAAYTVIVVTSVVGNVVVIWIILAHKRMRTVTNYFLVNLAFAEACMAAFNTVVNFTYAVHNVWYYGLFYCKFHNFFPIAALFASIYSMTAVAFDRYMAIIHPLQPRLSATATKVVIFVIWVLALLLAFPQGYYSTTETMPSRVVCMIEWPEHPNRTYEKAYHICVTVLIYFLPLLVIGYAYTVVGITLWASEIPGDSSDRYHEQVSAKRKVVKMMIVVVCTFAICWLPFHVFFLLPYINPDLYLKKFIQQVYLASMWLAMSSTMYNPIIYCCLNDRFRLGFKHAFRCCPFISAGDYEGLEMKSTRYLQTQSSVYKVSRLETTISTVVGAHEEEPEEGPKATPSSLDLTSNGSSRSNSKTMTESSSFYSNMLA
The target of experiment [9] is human δ opioid receptor (human) (UniProt P41143). Briefly: cell-based or functional assay.
The target in experiment [10] is rat µ opioid receptor (rat) (UniProt P33535). Briefly: radioligand competition vs [3H]DAMGO, membranes of rMOR cells.
The target in experiment [11] is δ opioid receptor of the mouse isolated vas deferens (mouse), P32300. Briefly: cell-based or functional assay.
Sequence of δ opioid receptor of the mouse isolated vas deferens (mouse), P32300 (P32300 whole entry, stated change not applied): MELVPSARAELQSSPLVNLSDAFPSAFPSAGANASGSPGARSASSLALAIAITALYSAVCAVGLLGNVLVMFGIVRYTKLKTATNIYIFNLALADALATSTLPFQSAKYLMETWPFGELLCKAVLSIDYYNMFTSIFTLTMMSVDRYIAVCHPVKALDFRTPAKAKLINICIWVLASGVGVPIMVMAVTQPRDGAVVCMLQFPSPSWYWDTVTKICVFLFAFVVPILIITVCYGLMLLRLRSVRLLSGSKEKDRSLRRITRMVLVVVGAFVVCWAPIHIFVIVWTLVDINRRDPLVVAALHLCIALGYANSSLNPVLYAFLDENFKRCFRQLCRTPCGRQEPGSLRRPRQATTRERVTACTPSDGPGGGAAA
For experiment [12], the target named is rat NK1 receptor (rat) (UniProt P14600). Kind of experiment: radioligand competition vs [3H]substance P, membranes of rNK1 CHO cells. Background: In a radioligand displacement assay an active substance lowers the binding of a labelled ligand.
In experiment [13] the target is human δ opioid receptor (human) (UniProt P41143). Briefly: radioligand competition vs [3H]DPDPE, membranes of hDOR cells.
The target in experiment [14] is human NK1 receptor (human) (UniProt P25103). Briefly: radioligand competition vs [3H]substance P, membranes of hNK1 CHO cells.
Sequence of human NK1 receptor (human) (P25103 whole entry): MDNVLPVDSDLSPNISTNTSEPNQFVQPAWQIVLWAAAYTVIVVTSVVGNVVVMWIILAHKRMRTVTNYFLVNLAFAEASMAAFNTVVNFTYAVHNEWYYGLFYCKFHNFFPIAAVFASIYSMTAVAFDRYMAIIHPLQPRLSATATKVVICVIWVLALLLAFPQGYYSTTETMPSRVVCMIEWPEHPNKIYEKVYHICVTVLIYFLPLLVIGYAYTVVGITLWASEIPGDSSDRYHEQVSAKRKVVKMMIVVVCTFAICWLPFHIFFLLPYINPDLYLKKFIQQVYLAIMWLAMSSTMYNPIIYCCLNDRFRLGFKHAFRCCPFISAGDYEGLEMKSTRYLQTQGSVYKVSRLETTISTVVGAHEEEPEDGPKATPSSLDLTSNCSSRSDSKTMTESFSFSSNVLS

Bridge positions count the residues as written; N and C are the ends. Square brackets hold non-standard residues; d marks the D form. Primed or numbered codes have the meaning given here. Ends that are not written are not given here. * marks the point of attachment. O‑Bzl(CF3)2 = C-terminal bis(trifluoromethyl)benzyl ester; NH(3,5-(CF3)2-benzyl) = FC(F)(F)c1cc(CN*)cc(C(F)(F)F)c1; OBzl(3,5-(CF3)2) = FC(F)(F)c1cc(CO*)cc(C(F)(F)F)c1; O‑Bzl(CF3)2(3) = C-terminal O-Bzl(CF3)2 ester; NH‑Bn(CF3)2 = C-terminal Bn(CF3)2 amide; dPen = CC(C)(S)[C@@H](N)C(=O)O; Pen = CC(C)(S)[C@H](N)C(=O)O; Nle = CCCC[C@H](N)C(=O)O; Abu = CC[C@H](N)C(=O)O; GABA = NCCCC(=O)O; βAla = NCCC(=O)O

Sequence of guinea pig NK1 receptor (guinea pig) (P30547 whole entry): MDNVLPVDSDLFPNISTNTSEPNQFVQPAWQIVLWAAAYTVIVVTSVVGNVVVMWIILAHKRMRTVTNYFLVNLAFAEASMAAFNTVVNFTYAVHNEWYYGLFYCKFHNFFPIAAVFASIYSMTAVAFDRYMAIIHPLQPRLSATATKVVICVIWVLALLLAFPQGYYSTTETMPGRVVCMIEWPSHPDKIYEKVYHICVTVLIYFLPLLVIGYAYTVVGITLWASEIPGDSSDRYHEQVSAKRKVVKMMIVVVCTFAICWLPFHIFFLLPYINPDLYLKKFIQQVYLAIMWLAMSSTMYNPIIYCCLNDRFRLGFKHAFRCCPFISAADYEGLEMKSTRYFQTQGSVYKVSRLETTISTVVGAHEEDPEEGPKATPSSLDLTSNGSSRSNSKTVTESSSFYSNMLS
Sequence of µ opioid receptor of the guinea pig isolated ileum (guinea pig) (P97266 whole entry): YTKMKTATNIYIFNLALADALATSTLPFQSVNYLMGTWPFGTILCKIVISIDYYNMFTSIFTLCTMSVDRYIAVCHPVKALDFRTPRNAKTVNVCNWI
Sequence of δ opioid receptor of the mouse isolated vas deferens (mouse) (P32300 whole entry, stated change not applied): as the sequence (P32300 whole entry, stated change not applied) above

Molecule Y[dA]GF[GABA]W-{O‑Bzl(CF3)2(3)} [Tyr-DAla-Gly-Phe-γ-Abu-Trp-O-Bzl(CF3)2 (NP34)] displayed a GPI/LMMP SP antagonist Ke in experiment [1] of 0.96 nM. The same molecule came in with an MVD δ-agonist IC50 in experiment [2] of 67.9 nM. For the same molecule, the GPI/LMMP µ-agonist IC50 in [3] is 200 nM.

The Ki is the dissociation constant of the complex between target and ligand, obtained from inhibition or displacement. Read a high Ki as a looser hold on the target. As to Y[dPen]GF[Nle]P[Pen]W-{NH(3,5-(CF3)2-benzyl)} (disulfide 2-7) [Tyr[DPenGlyPheNleProPen]TrpNHBn(CF3)2], the GTP binding EC50 in [4] was 2910 nM. This molecule displayed a GTP binding Emax in experiment [4] of 15%. The Ki was 1970 nM in experiment [5], 152 nM in experiment [6], 59 nM in [7] and 163 nM with rat NK1 receptor (rat) [8].

As to Y[dA]GFPW-{O‑Bzl(CF3)2} [Tyr-DAla-Gly-Phe-Pro-Trp-O-Bzl(CF3)2 (NP39)], the GPI/LMMP SP antagonist Ke in [1] came to 1.8 nM. This molecule also gave an MVD δ-agonist IC50 in experiment [2] of 84.6 nM.

Y[dA]GF[Abu]W-{O‑Bzl(CF3)2(3)} [Tyr-DAla-Gly-Phe-α-Abu-Trp-O-Bzl(CF3)2 (NP33)]: in experiment [1], the GPI/LMMP SP antagonist Ke is 5.6 nM. The molecule also returned an MVD δ-agonist IC50 in experiment [2] of 12.4 nM. This molecule displayed a GPI/LMMP µ-agonist IC50 in [3] of 600 nM.

For Y[dPen]GF[Nle]P[dPen]W-{NH(3,5-(CF3)2-benzyl)} (disulfide 2-7) [Tyr[DPenGlyPheNleProDPen]TrpNHBn(CF3)2], the Ki in experiment [7] was found to be 1.9 nM; with rat NK1 receptor (rat) [8], 26 nM.

Y[dA]GW-{OBzl(3,5-(CF3)2)} [Tyr-D-Ala-Gly-Trp-O-3′,5′(CF3)2-Bzl (NP44)] showed a GPI SP-antagonist Ke in experiment [1] of 5 nM. Further, the MVD δ-agonist IC50 in [2] came out at 303 nM.

In experiment [1], Y[dA]GFAW-{O‑Bzl(CF3)2(3)} [Tyr-DAla-Gly-Phe-Ala-Trp-O-Bzl(CF3)2 (NP31)] displayed a GPI/LMMP SP antagonist Ke of 18.6 nM. In experiment [2], the MVD δ-agonist IC50 was determined as 6.4 nM. The GPI/LMMP µ-agonist IC50 in experiment [3] stood at 401 nM.

The molecule Y[dA]GFGW-{O‑Bzl(CF3)2(3)} [Tyr-DAla-Gly-Phe-Gly-Trp-O-Bzl(CF3)2 (NP30)] yielded a GPI/LMMP SP antagonist Ke in experiment [1] of 58.9 nM. Moreover, in [2], the MVD δ-agonist IC50 was found to be 20.9 nM. In experiment [3], the GPI/LMMP µ-agonist IC50 worked out at 25.7 nM.

Y[dC]GF[Nle]P[dC]W-{NH(3,5-(CF3)2-benzyl)} (disulfide 2-7) [Tyr[DCysGlyPheNleProDCys]TrpNHBn(CF3)2 (TY038)] showed a GTP binding rMOR EC50 in experiment [4] of 21.7 nM. The GTP binding rMOR Emax in experiment [4] came to 11%. The GTP binding hDOR EC50 in experiment [9] is 14 nM. This molecule also gave a GTP binding hDOR Emax in experiment [9] of 87%. The Ki in experiment [10] turned out to be 156 nM; with rat NK1 receptor (rat) [12], 7.11 nM; in experiment [13] it was 55.5 nM; in experiment [14], 0.24 nM. This molecule had an MVD opioid(delta) agonist IC50 in experiment [11] of 18.9 nM.

In [1], Y[dA]GFMW-{O‑Bzl(CF3)2} [Tyr-DAla-Gly-Phe-Met-Trp-O-Bzl(CF3)2 (NP38)] had a GPI/LMMP SP antagonist Ke of 2 nM. Moreover, in [2], the MVD δ-agonist IC50 was determined as 9.07 nM.

In experiment [4], Y[dPen]GF[Nle]P[dPen]W-{NH‑Bn(CF3)2} (disulfide 2-7) [Tyr[DPenGlyPheNleProDPen]TrpNHBn(CF3)2 (TY048)] had a GTP binding rMOR EC50 of 135 nM. The GTP binding rMOR Emax in [4] was found to be 29%. Moreover, the figures for the Ki (in experiment [10]; in the experiment with rat NK1 receptor (rat) [12]; in [14]) were 998 nM, 26 nM and 1.9 nM, respectively.

In the case of Y[dA]GF[βAla]W-{O‑Bzl(CF3)2(3)} [Tyr-DAla-Gly-Phe-β-Ala-Trp-O-Bzl(CF3)2 (NP32)], the GPI/LMMP SP antagonist Ke in experiment [1] amounted to 250 nM. The molecule further registered an MVD δ-agonist IC50 in [2] of 12.6 nM. The molecule further came in with a GPI/LMMP µ-agonist IC50 in [3] of 435 nM.

In turn, Y[dA]GFW-{OBzl(3,5-(CF3)2)} [Tyr-D-Ala-Gly-Phe-Trp-O-3′,5′(CF3)2-Bzl (NP36)] returned a GPI SP-antagonist Ke in experiment [1] of 38 nM. In addition, the MVD δ-agonist IC50 in [2] came out at 43.1 nM.

With Y[dPen]GF[Nle]P[Pen]W-{NH‑Bn(CF3)2} (disulfide 2-7) [Tyr[DPenGlyPheNleProPen]TrpNHBn(CF3)2 (TY047)], the GTP binding rMOR EC50 in [4] was determined as 2910 nM. Moreover, the GTP binding rMOR Emax in experiment [4] is 15%. In addition, the inhibition constant Ki amounted to 1970 nM in experiment [10], 163 nM with rat NK1 receptor (rat) [12], 152 nM in experiment [13] and 59 nM in experiment [14].

Consider Y[dA]GF[dA]W-{O‑Bzl(CF3)2(3)} [Tyr-DAla-Gly-Phe-D-Ala-Trp-O-Bzl(CF3)2 (NP40)], for which, in experiment [1], the GPI/LMMP SP antagonist Ke was 608 nM. In addition, in [2], the MVD δ-agonist IC50 was found to be 58 nM. The molecule further yielded a GPI/LMMP µ-agonist IC50 in experiment [3] of 528 nM.
